PMC10449631 (Nature Chemical Biology, 2023)
Several values for one entry are separate records, joined by “and”; a condition that tells them apart may be missing. Identical values can stand only once. Each block holds one molecule with its values, some of them ahead of it. Positions of bridges follow the written chain, without caps; N, C: chain ends. Residues, ends and D or L forms follow the SMILES beside them. No end group written: not given here.

Assays:
PaAP [1] = tested on: PaAP; set-up: method as in PMID 30894675; conditions: impacted the activity of PaAP in vivo; cited from earlier work
PaAP_T [2] = biological target: T1, PaAP_T (Pseudomonas aeruginosa, UniProt Q02PA2); assay: Enzymatic assay with amino acid-pNA substrates (kcat, KM); assay type: biochemical; conditions: amino acid–pNA substrate
T1 construct: PaAP (WT, residues 27–536); His6 (TEV cleavable) (N, cleaved yes); made in house; host or cells: E. coli SHuffle T7
Experimental: (§1) Aminopeptidase activity was determined spectrophotometrically primarily using amino Leu-pNA. Other commercially available pNA substrates (isoleucine, methionine, alanine, valine, proline, arginine, lysine and phenylalanine) were also assayed. Leu-pNA was incubated with enzyme (100 nM) in assay buffer (50 mM Tris, pH 8.5, 200 mM NaCl) at 25 °C. A pNA release caused an absorbance increase at 405 nm, monitored using a BMG Labtech plate reader. […] Data were plotted in GraphPad Prism (version 9) and the Michalis Menten equation was used for fitting.

in vitro = in vitro ADME, Pseudomonas aeruginosa; conditions: cells or culture medium; after 48 h growth; read-out: peptide remaining in solution
Experimental: Supplementary Figure 19. Stability of cyclic-ERWGHDFIK
The stability of cyclic-ERWGHDFIK was tested by incubating in LB media +/- inoculation with PA14 Pseudomonas aeruginosa. Samples were taken at set timepoints over a 48 hour time period, quenched and analysed by LC-MS. % of cyclic-ERWGHDFIK remaining was calculated by comparing integrated peak areas to the 0 time point. n=1 […]
(1 picture or pasted object on this page, not shown here)

[3] = biological target: T2, PaAP_T (P. aeruginosa aminopeptidase, C-terminal truncated) (Pseudomonas aeruginosa, UniProt Q02PA2); assay: Inhibition of PaAP_T in the Leu-pNA aminopeptidase assay (KI, IC50); assay type: biochemical
T2 construct: PaAP (WT, residues 27–536); His6 (TEV cleavable) (N, cleaved yes); made in house; host or cells: E. coli SHuffle T7
Experimental: as §1
(§2) Inhibition assays were carried out with the following peptides: linear-ERWGHDFIK (PaAP C-terminal residues), cyclic-ERWGHDFIK, N-acetylated and C-amidated ERWGHDFIK. IC50 values were determined by varying peptide concentration at a fixed substrate concentration (fixed at KM, (S) = 2 mM, PaAP concentration was 100 nM). […] KI values were determined by fitting the data to equation (1) (Morrison’s equation):1 v=1−Et+I+KI−Et+I+KI^2−4EtIKI/2Et where v is the velocity, Et is the total enzyme concentration, I is the concentration of inhibitor and KI is the equilibrium dissociation constant for the inhibitor. IC50 values increased when measured at increasing S, consistent with competitive inhibition.

PaAP [4] = assay: PaAP in reaction buffer (50 mM Tris, pH 8.5, 100 mM NaCl); conditions: P. aeruginosa, room temperature, up to overnight
PaAP [5] = biological target: T3, PaAP (Pseudomonas aeruginosa, UniProt Q02PA2, A513L/Q514V/S515P); assay: Peptide digestion assay (overnight and time course, LC-MS/MALDI); assay type: biochemical; conditions: for P0 (parent peptide, LC–MS signal): 500 μM peptide, 1 μM PaAP_T, listed as ERWGHDFIK-NH3
T3 construct: PaAP (WT, residues 27–536); His6 (TEV cleavable) (N, cleaved yes); made in house; host or cells: E. coli SHuffle T7
Experimental: A variety of peptides of varying lengths and compositions were incubated with PaAP at room temperature. Assays were performed by incubating (overnight at room temperature) 500 μM of substrate (peptides) with 1 μM enzyme (PaAP) in reaction buffer (50 mM Tris, pH 8.5, 100 mM NaCl). The reactions were quenched by heating to 100 °C for 10 min followed by centrifugation at 17,000g in a benchtop centrifuge to remove precipitate. Supernatant was collected and samples were analyzed by LC–MS. Initial trial assays were carried out in the presence and absence (control) of enzyme to determine if the substrate was degraded (single or triplicate experiments). Time-course assays were performed on selected peptide substrates in triplicate. A 300 μl reaction (including 500 μM of substrate) was initiated by the addition of 1 μM enzyme. The reaction was incubated at room temperature. The reaction was quenched at set timepoints by the removal of 30 μl aliquots, which were immediately heated to 100 °C for 10 min. The samples were analyzed by LC–MS using a Xevo Q-ToF (Waters) as described below, searching for masses of all peptide breakdown products.
Peptide degradation time courses were fitted to exponential equations as follows:
P0 peptide consumption was fitted to a single exponential equation (equation (2)) with the format2 yt=y0−Plateaue^−kt+Plateau
Time courses for the formation and decay of peptide intermediates were fitted to double exponential equations (equation (3)) and single exponential equations, followed by a linear phase (4)3 yt=y0−Plateau1e^−k1t+y0−Plateau2e^−k2t+Plateau 4 yt=y0−Plateaue^−kt+vt+Plateau where y(t) is the product formed at time t, y0 − Plateau is the amplitude of the exponential phase, k is the observed rate constant for the exponential phase, y0 is the value of y at time 0, Plateau is the value of y after exponential phase, C is the offset and v is the slope of the linear phase.
Peptide samples incubated in the presence and absence of PaAP were initially analyzed by MALDI. The peptide sample (0.5 µl at 10 µM) was spotted along with matrix (0.5 µl 10 mg ml^−1 α-cyano-4-hydroxycinnamic acid in ACN/0.1% TFA (50/50, vol/vol)) on a stainless steel MALDI plate and left to dry. The sample plate was loaded into a Sciex 4800 MALDI mass spectrometer. The laser voltage was adjusted to give a good signal to noise strength, and 50 shots were acquired in a random pattern across the spot and spectra combined. The spectra were externally calibrated with Sciex Pepcal mix (range: 500–4,000 m/z).

[6] = biological target: T4, PaAP_T (P. aeruginosa aminopeptidase, C-terminal truncated) (Pseudomonas aeruginosa, UniProt Q02PA2); assay: Inhibition of PaAP_T in the Leu-pNA aminopeptidase assay (KI, IC50); assay type: biochemical; conditions: for IC50 plot data (PaAP_T activity at given peptide concentration): (S) = 2 mM, PaAP 100 nM, listed as ERWGHDFIK-NH3
T4 construct: PaAP (WT, residues 27–536); His6 (TEV cleavable) (N, cleaved yes); made in house; host or cells: E. coli SHuffle T7
T4 sequence (Q02PA2 whole entry, looked up): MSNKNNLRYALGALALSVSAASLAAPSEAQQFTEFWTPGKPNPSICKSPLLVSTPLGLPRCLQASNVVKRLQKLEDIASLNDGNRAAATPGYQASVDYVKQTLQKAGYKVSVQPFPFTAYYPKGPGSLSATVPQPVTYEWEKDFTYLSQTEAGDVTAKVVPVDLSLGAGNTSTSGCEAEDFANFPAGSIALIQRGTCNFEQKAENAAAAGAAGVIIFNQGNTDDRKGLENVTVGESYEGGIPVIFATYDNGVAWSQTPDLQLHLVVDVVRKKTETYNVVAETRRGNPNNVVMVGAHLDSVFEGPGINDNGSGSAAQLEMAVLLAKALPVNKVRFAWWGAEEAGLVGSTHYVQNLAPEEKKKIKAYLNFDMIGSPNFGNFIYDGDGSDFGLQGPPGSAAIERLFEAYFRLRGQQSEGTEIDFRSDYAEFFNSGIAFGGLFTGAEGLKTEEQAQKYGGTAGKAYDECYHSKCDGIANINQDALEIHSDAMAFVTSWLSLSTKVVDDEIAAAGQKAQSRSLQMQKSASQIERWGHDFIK
Experimental: as §1, §2

PaAP_T [7] = assay: reaction buffer (50 mM Tris, pH 8.5, 100 mM NaCl), time-course assay; conditions: Pseudomonas aeruginosa (recombinant enzyme), room temperature, up to 1220 min
PaAP_T [8] = assay: PaAP_T in reaction buffer (50 mM Tris, pH 8.5, 100 mM NaCl), time course; conditions: P. aeruginosa, room temperature, up to 1220 minutes

T3 sequence (Q02PA2 37-516 A513L/Q514V/S515P): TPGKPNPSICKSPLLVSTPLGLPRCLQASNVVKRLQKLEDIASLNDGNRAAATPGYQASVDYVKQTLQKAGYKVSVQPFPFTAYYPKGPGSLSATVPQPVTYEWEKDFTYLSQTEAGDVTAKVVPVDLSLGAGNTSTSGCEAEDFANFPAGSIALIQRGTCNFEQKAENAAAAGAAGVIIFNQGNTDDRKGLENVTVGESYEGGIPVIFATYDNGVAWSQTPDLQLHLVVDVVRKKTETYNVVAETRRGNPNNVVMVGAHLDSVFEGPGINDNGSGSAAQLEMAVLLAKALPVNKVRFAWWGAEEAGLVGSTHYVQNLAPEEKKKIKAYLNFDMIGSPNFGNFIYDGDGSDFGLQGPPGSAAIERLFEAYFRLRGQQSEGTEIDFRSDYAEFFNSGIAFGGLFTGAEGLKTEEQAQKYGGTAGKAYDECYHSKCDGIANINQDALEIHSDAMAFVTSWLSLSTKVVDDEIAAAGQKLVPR

Molecule: O=C(O)CCNC(=O)c1ccc(/N=N/c2ccc(O)c(C(=O)O)c2)cc1 [Balsalazide]
- effect on biofilm (PaAP [1]): anti-biofilm phenotype

Molecule: CC(C)C[C@H](N)C(=O)Nc1ccc([N+](=O)[O-])cc1 [Leu-pNA]
- kcat (PaAP_T [2]): 11.5 s⁻¹

Molecule: NCCCC[C@H](N)C(=O)Nc1ccc([N+](=O)[O-])cc1 [Lys-pNA]
- kcat (PaAP_T [2]): 4.13 s⁻¹

Molecule: CC(C)[C@H](N)C(=O)Nc1ccc([N+](=O)[O-])cc1 [Val-pNA]
- kcat (PaAP_T [2]): 0.115 s⁻¹

Molecule: CC[C@H](C)[C@@H]1NC(=O)[C@H](Cc2ccccc2)NC(=O)[C@H](CC(=O)O)NC(=O)[C@H](Cc2c[nH]cn2)NC(=O)CNC(=O)[C@H](Cc2c[nH]c3ccccc23)NC(=O)[C@H](CCCNC(=N)N)NC(=O)[C@@H](N)CCC(=O)NCCCC[C@@H](C(=O)O)NC1=O [cyclic-ERWGHDFIK] (H-ERWGHDFIK-OH; lactam 1-9)
- remaining at 48 h (in vitro): > 60%
- Ki [3]: 22.8 nM

- not cleaved (PaAP [4]): not a substrate
Molecule: Ac-ERWGHDFIK

Molecule: ERWGHDFIK-NH2: ERWGHDFIK peptide harboring a C-terminal amide
- substrate of / degraded by PaAP (words) (PaAP [5]; incubated with PaAP overnight, LC–MS or MALDI, listed as ERWEGHDFIK-NH3): good substrate
- P0 (parent peptide, LC–MS signal) (PaAP [5]; time 0 minutes): 747781 and 703178 and 683749
- P0 (parent peptide, LC–MS signal) (PaAP [5]; time 5 minutes): 717720 and 659374 and 657747
- P0 (parent peptide, LC–MS signal) (PaAP [5]; time 10 minutes): 666366 and 611681 and 573626
- P0 (parent peptide, LC–MS signal) (PaAP [5]; time 30 minutes): 456167 and 415831 and 416655
- P0 (parent peptide, LC–MS signal) (PaAP [5]; time 60 minutes): 206401 and 213826 and 168991
- P0 (parent peptide, LC–MS signal) (PaAP [5]; time 90 minutes): 48119.3 and 55308.2 and 38290.8
- P0 (parent peptide, LC–MS signal) (PaAP [5]; time 120 minutes): 7764.71 and 8223.82 and 5808.71
- P0 (parent peptide, LC–MS signal) (PaAP [5]; time 180 minutes): 323.386 and 411.426 and 320.297
- relative rate of degradation by PaAP (PaAP [5]; time-course assay, LC–MS): processed at a faster rate than unmodified ERWGHDFIK
- IC50 relative to unmodified linear ERWGHDFIK ([6]; Leu-pNA assay): increased IC50 value
- inhibition of PaAP_T ([6]; Leu-pNA assay): very poor inhibitors
- IC50 plot data (PaAP_T activity at given peptide concentration) ([6]; log(I) 0): 100.509 and 101.823 and 100.804
- IC50 plot data (PaAP_T activity at given peptide concentration) ([6]; log(I) 0.39794): 100.885 and 102.922 and 101.877
- IC50 plot data (PaAP_T activity at given peptide concentration) ([6]; log(I) 0.69897): 100.054 and 101.233 and 108.07
- IC50 plot data (PaAP_T activity at given peptide concentration) ([6]; log(I) 1): 99.2493 and 105.174 and 106.059
- IC50 plot data (PaAP_T activity at given peptide concentration) ([6]; log(I) 1.39794): 96.4075 and 101.34 and 94.2091
- IC50 plot data (PaAP_T activity at given peptide concentration) ([6]; log(I) 1.69897): 90.5898 and 93.2172 and 95.2547
- IC50 plot data (PaAP_T activity at given peptide concentration) ([6]; log(I) 2): 71.9303 and 76.8365 and 72.5737
- IC50 plot data (PaAP_T activity at given peptide concentration) ([6]; log(I) 2.39794): 36.7024 and 39.9464 and 37.7748
- IC50 plot data (PaAP_T activity at given peptide concentration) ([6]; log(I) -0.30103): 101.126 and 105.737 and 97.1046
- IC50 plot data (PaAP_T activity at given peptide concentration) ([6]; log(I) -0.60206): 99.866 and 101.85 and 100.456
- IC50 plot data (PaAP_T activity at given peptide concentration) ([6]; log(I) -1): 101.475 and 103.619 and 100.617
- IC50 plot data (PaAP_T activity at given peptide concentration) ([6]; log(I) -1.30103): 101.126 and 99.5174 and 100.483

- fragment found (PaAP_T [7]): products from P-5, major
- fragment found (PaAP_T [8]): products from P-5, major
Molecule: HCATIPAFDG

Molecule: cyclic-ERWGHDFIK cyclized by isopeptide bond
- not cleaved (PaAP [4]): not degraded when incubated overnight with PaAP
